This note sets out measurements from patent US20200055958A1.

The experiment concerns the target VEGF-A (human) (UniProt P15692). The experiment in a line: cell-based or functional assay.

Chain of VEGF-A (human) (P15692 other isoform, or with tags, fused parts or gaps limits assumed): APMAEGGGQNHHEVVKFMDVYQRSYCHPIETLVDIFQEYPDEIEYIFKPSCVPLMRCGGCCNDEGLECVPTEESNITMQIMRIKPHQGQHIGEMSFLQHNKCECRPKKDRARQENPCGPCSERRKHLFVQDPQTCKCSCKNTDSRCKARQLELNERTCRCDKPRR

The substance “positive control, VEGFR1 ECD D2 and VEGFR2 ECD D3 fused C-terminally with IgG1 Fc fragment (Fc fusion)” yielded an IC50, VEGF-dependent HUVEC cell growth assay (MTS) of 0.19 nM.
